# According to PMC7934871 (JCI Insight, 2021):
# Non-standard residues stand in square brackets, D forms with d. No end group written: not given here. pY = N[C@@H](Cc1ccc(OP(=O)(O)O)cc1)C(=O)O
# How the values were obtained:
# [1] = Systemic toxicity in mice; format: in vivo; details: 1 mg/kg i.v. every other day for 3 weeks, n = 3
# Method: To evaluate the potential toxicity associated with systemic treatments of PS-peptide, PS-acet.-STAT3 peptide, PS-oligo, naive peptide, and PO- or PS-acet.-STAT3 peptide were given to the mice at 1 mg/kg through i.v. every other day for 3 weeks.
# Supplemental Figure 10 (related to Figure 3). The systemic toxicity of PS-acet.-peptide.
# The bodyweight (A), blood count (B) and organ morphology (H&E staining; spleen, kidney and liver) (C) of the mice (n=3) treated with HBSS (1), PS-oligo (2), naïve peptide (3), PO-peptide (4) or PS-peptide (5) every other day at 1 mg/kg (per treatment) for 3 weeks.
# Individual value of each mouse is shown as a dot on the graph. The red lines on each graph in (B) indicate the normal ranges. Blood count was done by a veterinary hematology analyzer. The images shown in (C) are the represented H&E section from three mice (n=3). Enlarged view are shown below as indicated. Scale bar, 50 µm.
# Aftabizadeh and Li et al., Figure S10
# STAT3 = STAT3 (Homo sapiens, UniProt P40763); assay: Binding of PS-Gp130 and STAT3, immunoprecipitation and Western blotting; set-up: endogenous in cells; details: 1 μM, 4 hours prior to harvest
# Method: Figure 8 PS-Gp130 and PS-MYC blocking peptides efficiently internalize into tumor cells to exert their functions. (A) For 1 hour 1 μM of PS-conjugated MYC (PS-MYC) and Gp130 (PS-Gp130) were incubated with cancer cells. PS-scramble MYC (PS-SC-MYC) was used as a control for PS-MYC. The peptide uptake was visualized by confocal microscopy and quantified by flow cytometry. Data are representative of 3 independent experiments (n = 3). (B) Upper panel: The binding of PS-Gp130 and STAT3 was examined by immunoprecipitation and Western blotting. PO-Gp130 was used as a control. For 4 hours prior to harvest, 1 μM of peptide was incubated with cells. Lower panel: PS-Gp130 inhibits IL-6–induced phosphorylation of STAT3 and p44/42 but not EGF-mediated signaling. […] (C) Gene expression of STAT3 targets was examined by quantitative PCR after the treatment with 1 μM of PS-Gp130 with or without IL-6 stimulation as described above. […] (D) A total of 1 μM of PS-SC-MYC or PS-MYC was incubated with cells for 48 hours before the gene expression of MYC targets was examined by quantitative PCR. […]
# Whole cell lysates or tissue homogenates were prepared by using RIPA lysis buffer (50 mM Tris at pH 7.4, 150 mM NaCl, 1 mM EDTA, 0.5% NP-40, 1 mM NaF, 15% glycerol, and 20 mM β-glycerophosphate). […] Protein amounts were determined by BCA using a Thermo Fisher Scientific kit. […]
# Sequence of STAT3 (P40763 whole entry, species assumed): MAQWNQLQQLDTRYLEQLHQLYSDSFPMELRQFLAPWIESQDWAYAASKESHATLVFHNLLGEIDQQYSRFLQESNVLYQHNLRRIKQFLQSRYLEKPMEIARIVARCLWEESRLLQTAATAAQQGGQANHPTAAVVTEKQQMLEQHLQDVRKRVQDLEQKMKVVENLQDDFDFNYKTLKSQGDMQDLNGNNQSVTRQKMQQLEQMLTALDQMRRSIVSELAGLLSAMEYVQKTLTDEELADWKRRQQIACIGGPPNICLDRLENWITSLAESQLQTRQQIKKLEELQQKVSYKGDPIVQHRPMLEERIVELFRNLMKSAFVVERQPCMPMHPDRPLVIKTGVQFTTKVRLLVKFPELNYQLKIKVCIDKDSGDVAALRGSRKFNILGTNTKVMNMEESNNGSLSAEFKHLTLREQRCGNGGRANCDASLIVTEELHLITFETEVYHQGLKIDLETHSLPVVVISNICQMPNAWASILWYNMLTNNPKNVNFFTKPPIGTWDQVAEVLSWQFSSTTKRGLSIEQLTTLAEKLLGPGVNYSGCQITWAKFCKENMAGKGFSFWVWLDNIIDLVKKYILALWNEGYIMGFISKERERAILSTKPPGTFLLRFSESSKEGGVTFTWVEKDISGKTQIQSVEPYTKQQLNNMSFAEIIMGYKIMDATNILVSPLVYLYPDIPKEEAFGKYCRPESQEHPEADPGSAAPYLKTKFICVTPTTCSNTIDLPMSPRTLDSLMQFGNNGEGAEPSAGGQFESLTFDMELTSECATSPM
Substance,"behavior, body weight, blood counts [1]","morphology and cell death in liver, spleen, kidney tissues (H&E) [1]",binding to STAT3 (STAT3)
PDIPKEEAFGK685(Ac)YCRPESQEHPC-linker-T*C*C*A*T*G*A*G*C*T*T*C*C*T*G*A*T*G*C*T [PS-acet.-STAT3 peptide],"No behavior changes, body weight loss, or abnormal blood counts",no significant morphology change or cell death,–
"PS-Gp130: PS-conjugated Gp130 peptide (amino acids 901–910) with phospho-Tyr905 (MPKS[pY]LPQTV; also: phosphorothioate oligonucleotide conjugate; UniProt P40189 901-910, looked up, fragment)",–,–,strongly bound
